Laboratory results from patent US20190153065A1 (published 2019).
Each block holds one binder with its values, some of them ahead of it.

Legend:
[1] = target: PD-L1 mutant K124A (mouse PD-L1-mCherry fusion) (mouse, UniProt Q9EP73 19-290); assay: FACS titration; avid
[2] = target: PD-L1 mutant R125A (mouse PD-L1-mCherry fusion) (mouse, UniProt Q9EP73 19-290); assay: FACS titration; avid
[3] = target: PD-L1 mutant D49R (mouse PD-L1-mCherry fusion) (mouse, UniProt Q9EP73 19-290); assay: FACS titration; avid
Sequence of PD-L1 mutant D49R (mouse PD-L1-mCherry fusion) (Q9EP73 19-290 D49R): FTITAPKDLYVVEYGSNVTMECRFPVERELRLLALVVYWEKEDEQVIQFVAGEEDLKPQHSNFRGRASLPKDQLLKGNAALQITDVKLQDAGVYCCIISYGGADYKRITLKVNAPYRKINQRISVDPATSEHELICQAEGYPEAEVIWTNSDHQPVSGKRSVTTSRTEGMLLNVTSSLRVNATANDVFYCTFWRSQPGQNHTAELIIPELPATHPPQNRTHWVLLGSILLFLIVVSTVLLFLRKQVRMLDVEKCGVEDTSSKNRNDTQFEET

[4] = target: PD-L1 mutant G120D (mouse PD-L1-mCherry fusion) (mouse, UniProt Q9EP73 19-290); assay: FACS titration; avid
Sequence of PD-L1 mutant G120D (mouse PD-L1-mCherry fusion) (Q9EP73 19-290 G120D): as the sequence (Q9EP73 19-290 D49R) above, with R31D, G102D counted along it

[5] = target: PD-L1 mutant G119D (mouse PD-L1-mCherry fusion) (mouse, UniProt Q9EP73 19-290); assay: FACS titration; avid
Sequence of PD-L1 mutant G119D (mouse PD-L1-mCherry fusion) (Q9EP73 19-290 G119D): as the sequence (Q9EP73 19-290 D49R) above, with R31D, G101D counted along it

[6] = target: T1, wild-type mouse PD-L1 mCherry (full-length mouse PD-L1 with C-terminal mCherry, on HEK 293 cells) (mouse, UniProt Q9EP73 19-290); assay: FACS
T1 sequence (Q9EP73 19-290): as the sequence (Q9EP73 19-290 D49R) above, with R31D counted along it

[7] = target: PD-L1 mutant Y56A (mouse PD-L1-mCherry fusion) (mouse, UniProt Q9EP73 19-290); assay: FACS
Sequence of PD-L1 mutant Y56A (mouse PD-L1-mCherry fusion) (Q9EP73 19-290 Y56A): as the sequence (Q9EP73 19-290 D49R) above, with R31D, Y38A counted along it

D28R = assay: FACS titration; avid
[8] = target: PD-L1 mutant D122A (mouse PD-L1-mCherry fusion) (mouse, UniProt Q9EP73 19-290); assay: FACS titration; avid
Sequence of PD-L1 mutant D122A (mouse PD-L1-mCherry fusion) (Q9EP73 19-290 D122A): as the sequence (Q9EP73 19-290 D49R) above, with R31D, D104A counted along it

[9] = target: T1, wild-type mouse PD-L1 mCherry …; assay: FACS titration; avid
[10] = target: PD-L1 mutant Y123R (mouse PD-L1-mCherry fusion) (mouse, UniProt Q9EP73 19-290); assay: FACS titration; avid
Sequence of PD-L1 mutant Y123R (mouse PD-L1-mCherry fusion) (Q9EP73 19-290 Y123R): as the sequence (Q9EP73 19-290 D49R) above, with R31D, Y105R counted along it

Sequence of PD-L1 mutant K124A (mouse PD-L1-mCherry fusion) (Q9EP73 19-290 K124A): as the sequence (Q9EP73 19-290 D49R) above, with R31D, K106A counted along it
Sequence of PD-L1 mutant R125A (mouse PD-L1-mCherry fusion) (Q9EP73 19-290 R125A): as the sequence (Q9EP73 19-290 D49R) above, with R31D, R107A counted along it

EC50 [1]: 42.9 nM
EC50 [2]: 38.8 nM
EC50 [3]: 1.8 nM
EC50 [4]: 2.8 nM
EC50 [5]: 2 nM
EC50 [6]: 1.8 nM
EC50 [7]: 1.9 nM
B1: wild-type mPD-1 Fc (residues L25-Q167, mIgG2a-10×His) (Fc fusion)
chain (part 1 of 2): LEVPNGPWRSLTFYPAWLTVSEGANATFTCSLSNWSEDLMLNWNRLSPSNQTEKQAAFCNGLSQPVQDARFQIIQLPNRHDFHMNILDTRRNDSGIYLCGAISLHPKAKIEESPGAELVVTERILETSTRYPSPSPKPEGRFQ
chain (part 2 of 2): HHHHHHHHHH

EC50 [8]: 68.2 nM
EC50 [9]: 39.2 nM
EC50 [1]: 54.9 nM
EC50 [10]: 7.7 nM
EC50 [2]: 20.2 nM
B3: wild-type mB7-1 Fc (residues D37-K245, mIgG2a-10×His) (Fc fusion)
chain: DVDEQLSKSVKDKVLLPCRYNSPHEDESEDRIYWQKHDKVVLSVIAGKLKVWPEYKNRTLYDNTTYSLIILGLVLSDRGTYSCVVQKKERGTYEVKHLALVKLSIKADFSTPNITESGNPSADTKRITCFASGGFPKPRFSWLENGRELPGINTTISQDPESELYTISSQLDFNTTRNHTIKCLIKYGDAHVSEDFTWEKPPEDPPDSK
modifications: C-terminal mIgG2a Fc-10×His (dimerising carrier), not in the letters

More lines, now with the values behind:

B2: PD-1 (Fc fusion)
chain (part 1 of 2): B1 chain (part 1 of 2)
chain (part 2 of 2): HHHHHHHHHH
EC50 (D28R): 2.6 nM

B4: B7-1 (Fc fusion)
chain: B3 chain
modifications: C-terminal mIgG2a Fc-10×His (dimerising carrier), not in the letters
EC50 (D28R): 18.8 nM
